# Reference: patent publication US20260069689A1
# pEC50: −log10 of the molar value.
# Experiments:
# [1] = molecular target: full-length SARS-CoV-2 spike protein (Wuhan-Hu-1) on Jurkat/hCD20 cells (SARS-CoV-2) (UniProt P0DTC2); experiment: cell-based or functional assay
# [2] = molecular target: T1, human CD20 on Jurkat cells (human) (UniProt P11836); experiment: cell-based or functional assay
# T1 sequence: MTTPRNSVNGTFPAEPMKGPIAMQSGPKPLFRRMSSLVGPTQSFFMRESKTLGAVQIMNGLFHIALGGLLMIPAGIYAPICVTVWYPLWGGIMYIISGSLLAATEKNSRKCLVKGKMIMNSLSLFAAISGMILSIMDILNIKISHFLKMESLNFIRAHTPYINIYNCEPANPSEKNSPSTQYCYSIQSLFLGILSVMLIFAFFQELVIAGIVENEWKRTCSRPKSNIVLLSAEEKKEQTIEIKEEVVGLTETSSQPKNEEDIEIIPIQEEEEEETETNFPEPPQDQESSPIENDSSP
# hACE-2-10His (human) = hACE-2-10His (human) (UniProt Q9BYF1); experiment: ELISA, hACE-2-10His coated on the plate
# [3] = molecular target: human FcγR3a 176Val allotype receptor (human) (UniProt P08637); experiment: cell-based or functional assay
Substance,"Max ADCP (%), MDM donor #1, Jurkat/hCD20/SARS-CoV-2 S FL cells [1] [%]","Max ADCP (%), MDM donor #2, Jurkat/hCD20/SARS-CoV-2 S FL cells [1] [%]","Max cytotoxicity (%), ADCC, NK donor #1, Jurkat/hCD20/SARS-CoV-2 S FL cells [1] [%]","Max cytotoxicity (%), ADCC, NK donor #2, Jurkat/hCD20/SARS-CoV-2 S FL cells [1] [%]","Max cytotoxicity (%), ADCC, NK donor #3, Jurkat/hCD20/SARS-CoV-2 S FL cells [1] [%]","Max ADCP (%), MDM donor #1, Jurkat/hCD20 cells [2] [%]","Max ADCP (%), MDM donor #2, Jurkat/hCD20 cells [2] [%]","Max cytotoxicity (%), ADCC, NK donor #1, Jurkat/hCD20 cells [2] [%]","Max cytotoxicity (%), ADCC, NK donor #2, Jurkat/hCD20 cells [2] [%]","Max cytotoxicity (%), ADCC, NK donor #3, Jurkat/hCD20 cells [2] [%]","EC50 (M) of ADCC, NK donor #3, Jurkat/hCD20/SARS-CoV-2 S FL cells [1] [M]","EC50 (M) of ADCP, MDM donor #1, Jurkat/hCD20/SARS-CoV-2 S FL cells [1] [M]","EC50 (M) of ADCP, MDM donor #2, Jurkat/hCD20/SARS-CoV-2 S FL cells [1] [M]","EC50 [M] of ADCP, macrophages, Jurkat/hCD20/SARS-CoV-2 spike cells [1] [M]","Max % ADCP, macrophages, Jurkat/hCD20/SARS-CoV-2 spike cells [1] [%]","EC50 (M), Jurkat/CD20/spike [3] [M]",other results
IgG1 isotype control (antibody),13.1,9.6,1.8,0,0,16.9,14.6,0.7,6.4,0.5,–,–,–,–,–,–,"Max cytotoxicity (%), ADCC, pooled primary NK cells, Jurkat/hCD20 cells [2]: 0.6%"
SARS-CoV-2 RBD.mmh,–,–,–,–,–,–,–,–,–,–,–,–,–,–,–,–,pEC50 (hACE-2-10His (human)): 9.52
casirivimab + imdevimab,49.5,48.2,1.6,4.1,15.4,–,–,–,–,–,3.6e-11,1.2e-10,5.78e-11,–,–,–,–
mAb10933 (antibody),28.3,28.6,1.4,5,11.1,14,11.5,4.7,3.6,1.2,4.89e-11,9.7e-12,2.23e-11,3.88e-11,33.1,6.47e-10,"Fold induction, Jurkat CD20 [3]: 1.1 fold; Fold induction, Jurkat/CD20/spike [3]: 2.9 fold"
mAb10987 (antibody),32.3,30.4,8.1,10.5,26.6,14.8,10.7,3.9,1.9,–,6.44e-11,2.91e-11,1.98e-11,3.19e-11,36.3,4.71e-10,"EC50 (M) of ADCC, NK donor #1, Jurkat/hCD20/SARS-CoV-2 S FL cells [1]: 7.42e-10 M; EC50 (M) of ADCC, NK donor #2, Jurkat/hCD20/SARS-CoV-2 S FL cells [1]: 5.05e-09 M"
